Test results taken from article PMC3534766.

Molecular target: FUS-RRM wild type (Homo sapiens, UniProt P35637 278-385)
Assay: NMR titration

Sequence of FUS-RRM wild type (P35637 278-385): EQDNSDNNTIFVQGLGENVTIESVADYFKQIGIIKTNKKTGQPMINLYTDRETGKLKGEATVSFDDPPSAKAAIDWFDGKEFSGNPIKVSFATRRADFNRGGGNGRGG

## TTAGGGTTAGGGTTAGGGTTAGGG (structured_DNA) [24-mer d(TTAGGG)4 (NMR)]
  binding result: binds
